Test results published in US20120244080A1 (GEORGIA STATE UNIVERSITY RESEARCH FOUNDATION, published 2012).

Columns and labels:
[1] = biological target: T1, GLP-1 receptor (GLP-1R) on rat insulinoma RINm5F cells (rat (RINm5F rat insulinoma cells), UniProt P32301 22-463); experiment: cell-based or functional assay
T1 sequence (looked up): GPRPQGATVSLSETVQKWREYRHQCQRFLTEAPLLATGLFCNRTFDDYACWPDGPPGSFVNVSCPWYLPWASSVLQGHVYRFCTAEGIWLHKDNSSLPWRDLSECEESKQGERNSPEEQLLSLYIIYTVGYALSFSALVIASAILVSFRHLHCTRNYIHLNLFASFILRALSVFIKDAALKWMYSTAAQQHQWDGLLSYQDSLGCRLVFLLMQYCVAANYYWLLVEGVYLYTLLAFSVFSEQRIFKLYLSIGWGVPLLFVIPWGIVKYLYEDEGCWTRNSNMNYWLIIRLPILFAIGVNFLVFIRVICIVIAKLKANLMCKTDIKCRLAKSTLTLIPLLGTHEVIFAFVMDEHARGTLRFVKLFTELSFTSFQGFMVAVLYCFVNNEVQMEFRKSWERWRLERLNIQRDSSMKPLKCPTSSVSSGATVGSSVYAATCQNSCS

[2] = biological target: T1, GLP-1 receptor (GLP-1R) on rat …; experiment: immunofluorescence staining of RINm5F cells (GLP-1R expressing) after 30 min at 37 °C, detected with rabbit polyclonal anti-calbindin D9k
Method: The cells were extensively washed after 30 min treatments under 37° C. in microscopic chamber slides and subsequently fixed. […] The light shading represents antibody staining.
It is well known that GLP-1R is expressed in RINm5F but not in CHO cells. […] Similar binding analyses were carried out with RINm5F cells and a […] (αTC1).

Binder | intracellular cAMP level in rat insulinoma RINm5F cells (Lance cAMP 384 kit), IC50 [1] [nM] | binding result [2]
Fusion Protein Cal.GLP (human Calbindin D9k-GLP-1 fusion protein) (designed binder) MSTKKSPEELKRIFEKYAAKEGDPDQLSKDELKLLIQAEFPSLLKGPNTLDDLFQELDKNGHAEGTFTSDVSSYLEGQAAKEFIAWLVKGRG | ~20 | –
Human Calbindin D9k (other, Negative control and parental host protein) STKKSPEELKRIFEKYAAKEGDPDQLSKDELKLLIQAEFPSLLKGPNTLDDLFQELDKNGDGEVSFEEFQVLVKKISQ | – | no binding (tested: 50 µM)
